We go through one protein from FireProtDB (doi:10.1093/protein/12.10.841).

The conditions of the data set: Homo sapiens; pH 2.7; Thermal; DSC; glycine 0.05 M; reversible: yes; whole UniProt chain shown.

B1: Lysozyme C wild type, P61626 (protein)
chain: MKALIVLGLVLLSVTVQGKVFERCELARTLKRLGMDGYRGISLANWMCLAKWESGYNTRATNYNAGDRSTDYGIFQINSRYWCNDGKTPGAVNACHLSCSALLQDNIADAVACAKRVVRDPQGIRAWVAWRNRCQNRDVRQYVQGCGV
For orientation: Tm means the temperature at the midpoint of the melting transition. For the protein B1, the melting temperature (Tm) came out at 64.9 °C, the “heat capacity change of unfolding” value was determined as 1.58 kcal/mol/K, the “unfolding enthalpy (calorimetric)” value is 114 kcal/mol and the “unfolding enthalpy (van 't Hoff)” value is 120 kcal/mol.
